Test results taken from US20150050306A1 (University of Washington, published 2015).

What was measured:
Mota Fab [1] = biological target: T1, Mota Fab; experiment: SPR (Biacore 2000); scaffold coupled to chip, Motavizumab as analyte
T1 construct: also called Motavizumab Fab; Fab portion of Motavizumab
Description: All experiments were carried out on a Biacore 2000 (GE Healthcare) at 25° C. with HBSEP (0.01 M HEPES pH 7.4, 0.15 M NaCl, 3 mM EDTA and 0.005% (v/v) Surfactant P20) (GE Healthcare) as running buffer. […] Samples of different protein concentrations were injected in duplicates over this surface at a flow rate of 50-100 μl/min. If necessary, surface regeneration was performed with two 60 seconds injections of 3 M MgCl₂ at a flow rate of 10 μl/min. One flow cell contained anti-human IgG only and its interaction with the analyte was used as reference. Alternatively, another format was used where the epitope where amine-coupled to the sensor chip and Mota Fab was injected with identical flow rates as mentioned above.
To test whether the functional site (mota epitope) was recreated with fidelity, binding affinities were assessed by Surface Plasmon Resonance (SPR) experiments (FIG. 6). […] (See Table 3) The scaffolds were coupled to the biacore chip and Motavizumab was used as analyte.

Mota Fab [2] = biological target: T1, Mota Fab; experiment: SPR (Biacore 2000); koff/kon; scaffold coupled to chip, Motavizumab as analyte

B1: FFL_004 (designed binder)
chain: GSMSDARKDLEERLDKLLEAAKNKMDKFKAAMRKRGQREERKKDWAKIVRDEFEQFRKAVRNFLSEALSKINDYPITNDDKKLTSNDTKKFAAEVEKKLEAFKADVEEAATQ
notes: Purified on Ni++ resin; no tag is stated for this construct
Q: Which koff (Mota Fab [1]) does the source give for B1 here?
A: 0.000832 s⁻¹

Q: And the kon (Mota Fab [1])?
A: 1.05e+06 M⁻¹ s⁻¹

Q: What about the Kd (Mota Fab [2]) of the same binder?
A: 0.795 nM

B2: FFL_001 (designed binder)
chain: GSRSDMRKDAERRFDKFVEAAKNKFDKFKAALRKGDIKEERRKDMKKLARKEAEQARRAVRNRLSELLSKINDMPITNDQKKLMSNDVLKFAAEAEKKIEALAADAEDKFTQGSW
notes: monomeric
Q: For B2, which koff (Mota Fab [1]) is on record?
A: 0.000119 s⁻¹

Q: What about the kon (Mota Fab [1]) of the same binder?
A: 3.99e+06 M⁻¹ s⁻¹

Q: What about the Kd (Mota Fab [2]) of the same binder?
A: 0.03 nM

B3: FFL_002 (designed binder)
chain: GSLSDVRKDVEKRIDKALEAFKNKMDKEKAAFRKDPPSEERRKDKKKEFREEREQVRKAIRNVLSEALSKINDLPITNDKKKLVSNDVIKKVAEMKKKVELEVADVEKKVTQGSW
notes: as for B1
Q: What does the source list for B3?
A: koff (Mota Fab [1]): 0.000734 s⁻¹; kon (Mota Fab [1]): 1.56e+06 M⁻¹ s⁻¹; Kd (Mota Fab [2]): 0.47 nM

B4: FFL_007 (designed binder)
chain: GSLSDIRKDAERRFDKLVEAVKNKLDKMKAALRKEGQQEERMKDLMKFMRKEVEQLRKAMRNFLSEALSKINDMPITNDDKKLISNDLKKYDAIAEKKLEAMKADVERMATQGSWLEHHHHHH
Q: Which koff (Mota Fab [1]) does the source give for B4 here?
A: 0.000136 s⁻¹

Q: What about the kon (Mota Fab [1]) of the same binder?
A: 1.45e+06 M⁻¹ s⁻¹

Q: What about the Kd (Mota Fab [2]) of the same binder?
A: 0.0941 nM

B5: FFL_005 (designed binder)
chain: GSMSDIRKDLEERFDKLVEALKNKVDKMKAAFRKDQFHEERMKDWFKDLRKEVEQMRRAVRNYASEALSKINDLPITNDDKKLASNDVLKLVAEVWKKLEAILADVEAWFTQLEHHHHHH
Q: How did the koff (Mota Fab [1]) turn out when B5 was run?
A: 0.000209 s⁻¹

Q: What about the kon (Mota Fab [1]) of the same binder?
A: 2.97e+06 M⁻¹ s⁻¹

Q: What about the Kd (Mota Fab [2]) of the same binder?
A: 0.0703 nM

B6: FFL_006 (designed binder)
chain: GSFSDIRKDAEDRADKAFEAAKNKFDKIKAAIRKDWPSEERAKDLMKKARYEMEQARRAIRNIESEALSKINDLPITNDQKKLASNDIIKEMARLFKKLEALMADIEILVTQ
notes: as for B1
Q: Which Kd (Mota Fab [2]) does the source give for B6 here?
A: 0.652 nM
